Data from publication PMC5814841.
Where a chain is given by its changes, count along the chain named.

T1: hpTEN N53A/S55A/R110A (Hansenula polymorpha (Ogataea …, UniProt R4IT35 1-159, N53A;S55A;R110A))
T1 sequence: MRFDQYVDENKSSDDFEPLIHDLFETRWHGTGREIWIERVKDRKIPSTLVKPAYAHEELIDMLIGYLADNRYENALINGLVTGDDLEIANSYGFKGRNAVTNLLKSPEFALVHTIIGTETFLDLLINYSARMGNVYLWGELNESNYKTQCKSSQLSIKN

T2: hpTEN N53A/S55A/R110A/E119A (Hansenula polymorpha (Ogataea …, UniProt R4IT35 1-159, N53A;S55A;R110A;E119A))
T2 sequence: T1 sequence with E119A

T3: hpTEN (Hansenula polymorpha (Ogataea …, UniProt R4IT35 1-159))
T3 sequence: T1 sequence with A53N, A55S, A110R

B1: FAM-E8 fork (DNA:RNA)
DNA: CTGTTTCGGGTGGC
RNA: GCCACCCUUCGUCA
B2: FAM-E4 heteroduplex (DNA:RNA)
DNA: GTGGCGGGGTGGCG
?: CGCCACCCCGCCAC
B3: E4 RNA-DNA heteroduplex 2 (DNA:RNA)
DNA: GTGGCGGGGTGGCG
?: CGCCACCCCGCCAC
B4: E3 RNA-DNA heteroduplex 1 (DNA:RNA)
DNA: GGGTGGCG
?: CGCCACCC
B5: E9 RNA-DNA half-fork (DNA:RNA)
DNA: GGGTGGC
RNA: GCCACCCUUCGUCA

Legend:
[1] = molecular target: T1, hpTEN N53A/S55A/R110A; test: MST
[2] = molecular target: T2, hpTEN N53A/S55A/R110A/E119A; test: MST
[3] = molecular target: T3, hpTEN; test: MST
[4] = molecular target: T3, hpTEN; test: NMR titration

| Binder | Kd [3] | Kd [4] | other results |
| --- | --- | --- | --- |
| B1 | 400 ± 200 µM |  | Kd [1]: ~300 µM; Kd [2]: ~300 µM |
| CGCCACCCCGCCAC (ssRNA) [E5 ssRNA 2] |  | 5000 ± 3000 µM |  |
| B2 | 900 ± 200 µM |  |  |
| CGCCACCC (ssRNA) [E1 ssRNA 1] |  | 5000 ± 2500 µM |  |
| B3 |  | 900 ± 200 µM |  |
| GTGGCGGGGTGGCG (ssDNA) [FAM-ssDNA E2] | 1000 ± 200 µM |  |  |
| B4 |  | 1400 ± 300 µM |  |
| B5 |  | 4000 ± 2000 µM |  |
